Test results from the RNAGym collection of RNA variant scans (doi:10.1101/gr.219683.116).

B1: mRNA-splicing (parent)
chain: AGUUGCUGCUGGGAGCUCCAGCACAGUGAAAUGGACAGAAGGGCAGAGCAA

Variants of: B1
Assay: exon inclusion enrichment index; higher = more inclusion; WT1 exon 5 minigene, HEK293

Variant | exon inclusion enrichment index
AGUUCGCGCCGGGAGCUCCAGCACAGUGAAAUGGACAGAAGAGCAGAGCAA [G5C C6G U7C U10C G42A] | 4.32
AGUUCGCGCCGGGAGCUCCAGCACAGUGAAAUGGACAGAAGCGCAGAGCAA [G5C C6G U7C U10C G42C] | 4.75
AGUUCGCGCCGGGAGCUCCAGCACAGUGAAAUGGACAGAAGUGCAGAGCAA [G5C C6G U7C U10C G42U] | 4.02
AGUUCGCGCCGGGAGCUCCAGCACAGUGAAAUGGACAGAAACGCAGAGCAA [G5C C6G U7C U10C G41A G42C] | 3.88
AGUUCGCGCCGGGAGCUCCAGCACAGUGAAAUGGACAGAAAAGCAGAGCAA [G5C C6G U7C U10C G41A G42A] | 2.54
AGUUCGCGCCGGGAGCUCCAGCACAGUGAAAUGGACAGAAAUGCAGAGCAA [G5C C6G U7C U10C G41A G42U] | 2.89
AGUUCGCGCCGGGAGCUCCAGCACAGUUAAAUGGACAGAAGGGCAGAGCAA [G5C C6G U7C U10C G28U] | 1.05
AGUUCGCGCCGGGAGCUCCAGCACAGUAAAAUGGACAGAAGGGCAGAGCAA [G5C C6G U7C U10C G28A] | 1.63
AGUUCGCGCCGGGAGCUCCAGCACAGUCAAAUGGACAGAAGGGCAGAGCAA [G5C C6G U7C U10C G28C] | 2.68
AGUUCGCGCCGGGAGCUCCAGCACAGUGAAAUACACAGAAGGGCAGAGCAA [G5C C6G U7C U10C G33A G34C] | 0.988
AGUUCGCGCCGGGAGCUCCAGCACAGUGAAAUAAACAGAAGGGCAGAGCAA [G5C C6G U7C U10C G33A G34A] | 0.795
AGUUCGCGCCGGGAGCUCCAGCACAGUGAAAUAUACAGAAGGGCAGAGCAA [G5C C6G U7C U10C G33A G34U] | 0.979
AGUUCGCGCCGGGAGCUCCAGCACAGUGAAAUGGACAGAAGGGCACAGCAA [G5C C6G U7C U10C G46C] | 2.78
AGUUCGCGCCGGGAGCUCCAGCACAGUGAAAUGGACAGAAGGGCAAAGCAA [G5C C6G U7C U10C G46A] | 3.39
AGUUCGCGCCGGGAGCUCCAGCACAGUGAAAUGGACAGAAGGGCAUAGCAA [G5C C6G U7C U10C G46U] | 2.51
AGUUCGCGCCGGGAGCUCCAGCACAUCGAAAUGGACAGAAGGGCAGAGCAA [G5C C6G U7C U10C G26U U27C] | 4.3
AGUUCGCGCCGGGAGCUCCAGCACAUAGAAAUGGACAGAAGGGCAGAGCAA [G5C C6G U7C U10C G26U U27A] | 2.22
AGUUCGCGCCGGGAGCUCCAGCACAUGGAAAUGGACAGAAGGGCAGAGCAA [G5C C6G U7C U10C G26U U27G] | 3.98
AGUUCGCGCCGGGAGCUCCAGCACAGUGAAAUGGACAGAAGUACAGAGCAA [G5C C6G U7C U10C G42U G43A] | 4.08
AGUUCGCGCCGGGAGCUCCAGCACAGUGAAAUGGACAGAAGUUCAGAGCAA [G5C C6G U7C U10C G42U G43U] | 4.33
AGUUCGCGCCGGGAGCUCCAGCACAGUGAAAUGGACAGAAGUCCAGAGCAA [G5C C6G U7C U10C G42U G43C] | 2.28
AGUUCGCGCCGGGAGCUCCAGCACAGUGAAAUGAACAGAAGGGCAGAGCAA [G5C C6G U7C U10C G34A] | 2.69
AGUUCGCGCCGGGAGCUCCAGCACAGUGAAAUGUACAGAAGGGCAGAGCAA [G5C C6G U7C U10C G34U] | 1.32
AGUUCGCGCCGGGAGCUCCAGCACAGUGAAAUGCACAGAAGGGCAGAGCAA [G5C C6G U7C U10C G34C] | 1.79
AGUUCGCGCCGGGAGCUCCAGCACAGUGAAAUGGACAAAAGGGCAGAGCAA [G5C C6G U7C U10C G38A] | 2.05
AGUUCGCGCCGGGAGCUCCAGCACAGUGAAAUGGACACAAGGGCAGAGCAA [G5C C6G U7C U10C G38C] | 2.56

Variant | exon inclusion enrichment index
AGUUCGCGCCGGGAGCUCCAGCACAGUGAAAUGGACAUAAGGGCAGAGCAA [G5C C6G U7C U10C G38U] | 1.34
AGUUCGCGCCGGGAGCUCCAGCACAGUGAAAUGCCCAGAAGGGCAGAGCAA [G5C C6G U7C U10C G34C A35C] | 0.321
AGUUCGCGCCGGGAGCUCCAGCACAGUGAAAUGCUCAGAAGGGCAGAGCAA [G5C C6G U7C U10C G34C A35U] | 1.1
AGUUCGCGCCGGGAGCUCCAGCACAGUGAAAUGCGCAGAAGGGCAGAGCAA [G5C C6G U7C U10C G34C A35G] | 2.84
AGUUCGCGCCGGGAGCUCCAGCACAGUGAAAUGGACAGAAGACCAGAGCAA [G5C C6G U7C U10C G42A G43C] | 5.39
AGUUCGCGCCGGGAGCUCCAGCACAGUGAAAUGGACAGAAGAUCAGAGCAA [G5C C6G U7C U10C G42A G43U] | 5.36
AGUUCGCGCCGGGAGCUCCAGCACAGUGAAAUGGACAGAAGAACAGAGCAA [G5C C6G U7C U10C G42A G43A] | 4.65
AGUUCGCGCCGGGAGCUCCAGCACAGUAGAAUGGACAGAAGGGCAGAGCAA [G5C C6G U7C U10C G28A A29G] | 2.1
AGUUCGCGCCGGGAGCUCCAGCACAGUACAAUGGACAGAAGGGCAGAGCAA [G5C C6G U7C U10C G28A A29C] | 2.29
AGUUCGCGCCGGGAGCUCCAGCACAGUAUAAUGGACAGAAGGGCAGAGCAA [G5C C6G U7C U10C G28A A29U] | 1.28
AGUUCGCGCCGGGAGCUCCAGCACAGUGAAAUGAGCAGAAGGGCAGAGCAA [G5C C6G U7C U10C G34A A35G] | 2.26
AGUUCGCGCCGGGAGCUCCAGCACAGUGAAAUGACCAGAAGGGCAGAGCAA [G5C C6G U7C U10C G34A A35C] | 2.92
AGUUCGCGCCGGGAGCUCCAGCACAGUGAAAUGAUCAGAAGGGCAGAGCAA [G5C C6G U7C U10C G34A A35U] | 1.96
AGUUCGCGCCGGGAGCUCCAGCACAGUGAAAUGGACACUAGGGCAGAGCAA [G5C C6G U7C U10C G38C A39U] | 0.532
AGUUCGCGCCGGGAGCUCCAGCACAGUGAAAUGGACACCAGGGCAGAGCAA [G5C C6G U7C U10C G38C A39C] | 2.86
AGUUCGCGCCGGGAGCUCCAGCACAGUGAAAUGGACACGAGGGCAGAGCAA [G5C C6G U7C U10C G38C A39G] | 2.71
AGUUCGCGCCGGGAGCUCCAGCACAGUCUAAUGGACAGAAGGGCAGAGCAA [G5C C6G U7C U10C G28C A29U] | 2.35
AGUUCGCGCCGGGAGCUCCAGCACAGUCGAAUGGACAGAAGGGCAGAGCAA [G5C C6G U7C U10C G28C A29G] | 4.75
AGUUCGCGCCGGGAGCUCCAGCACAGUCCAAUGGACAGAAGGGCAGAGCAA [G5C C6G U7C U10C G28C A29C] | 2.81
AGUUCGCGCCGGGAGCUCCAGCACAGUGAAAUGGACAGAACUGCAGAGCAA [G5C C6G U7C U10C G41C G42U] | 4.21
AGUUCGCGCCGGGAGCUCCAGCACAGUGAAAUGGACAGAACCGCAGAGCAA [G5C C6G U7C U10C G41C G42C] | 4.35
AGUUCGCGCCGGGAGCUCCAGCACAGUGAAAUGGACAGAACAGCAGAGCAA [G5C C6G U7C U10C G41C G42A] | 3
AGUUCGCGCCGGGAGCUCCAGCACAGUGAAAUGGACAGAAGGAGAGAGCAA [G5C C6G U7C U10C G43A C44G] | 4.94
AGUUCGCGCCGGGAGCUCCAGCACAGUGAAAUGGACAGAAGGAUAGAGCAA [G5C C6G U7C U10C G43A C44U] | 3.64
AGUUCGCGCCGGGAGCUCCAGCACAGUGAAAUGGACAGAAGGAAAGAGCAA [G5C C6G U7C U10C G43A C44A] | 4.31
